# pKd, pKi: −log10 of the molar value.
# Key:
# TMC-2206 [1] = experiment: ELISA, GST fusion protein on immobilized TMC-2206 (Kd apparent)
# TMC-2206 [2] = experiment: fusion protein competing Eu-TMC-2206 off α2β1-coated plate
# [3] = biological target: human α2β1 integrin on human cells (platelets, leukocytes, HT1080) (human) (UniProt P17301); experiment: cell-based or functional assay
# [4] = biological target: human platelet α2β1 integrin (immobilized on microtiter plates) (human) (UniProt P17301); experiment: competition with Eu-TMC-2206 on platelet α2β1-coated plates
# TMC-2206 [5] = experiment: ELISA, GST fusion protein on immobilized TMC-2206
# [6] = biological target: Humanized TMC-2206 (hIgG4/κ VH12.0/VL10.0Q); experiment: fusion protein competing Eu-humanized TMC-2206 off α2β1-coated plates
# TMC-2206 [7] = experiment: ELISA, GST fusion protein on immobilized TMC-2206, Kd estimated from EC50
Substance,pKd (TMC-2206 [1]),pKi (TMC-2206 [2]),other results
GST-hα2 I domain N67E (from UniProt P17301 153-368),9.55,9.40,
GST-mα2 I domain H93Y (from UniProt Q62469 150-377),,7.69,fold decrease in potency relative to the wt human α2 I domain (TMC-2206 [2]): 200 fold
10G11 (antibody),,,"EC50, adhesion of resting platelets to Type I collagen [3]: > 200 nM"
AK7 (antibody),,,pKi [4]: 10.15
GST-hα2 I domain Y93H (from UniProt P17301 153-368),8.21,,fold decrease in apparent affinity (TMC-2206 [5]): 23 fold
GST-hα2 I domain T76D (from UniProt P17301 153-368),9.77,9.82,
GST-rat α2 I domain fusion protein (from UniProt Q62469 150-377),,8.42,pKi [6]: 8.28; fold decrease in Ki compared to the human α2 I domain [6]: 9 fold; pKd (TMC-2206 [7]): 9.27; fold shift in Kd compared to human α2 (TMC-2206 [5]): 3 fold
GST-hα2 I domain Q105E (from UniProt P17301 153-368),9.82,9.42,
GST-hα2 I domain Y77F (from UniProt P17301 153-368),9.66,9.41,

# The next lines start with results.
pKd (TMC-2206 [1]),pKi (TMC-2206 [2]),Substance,other results
9.64,9.46,GST-hα2 I domain E44V (from UniProt P17301 153-368),
9.72,9.08,GST-hα2 I domain V71I (from UniProt P17301 153-368),
9.72,9.14,GST-hα2 I domain Q48T (from UniProt P17301 153-368),
9.36,9.07,GST-hα2 I domain V70I (from UniProt P17301 153-368),
9.55,9.62,GST-hα2 I domain I21V (from UniProt P17301 153-368),

# — US20070128190A1
